± gives the standard error. This sample holds only a part of the variants without activity.
B1: glmS ribozyme (parent)
chain: AUAAAAGCGCCAGAACUACAGAAAUGUAGUUGACGAGGAGGAGGUUUAUCGAAUUUUCGGCGGAUGCCUCCAAA

Variants of: B1
Experiment: self-cleavage kobs at 2500 uM GlcN6P; higher = faster cleavage; RNA array
Conditions: with glucosamine-6-phosphate
Summary of the method: (§1)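 E. coli RNA polymerase transcribed barcoded ribozyme variants in situ on sequenced MiSeq chips, which were tracked via a hybridised Cy3 probe at 37 °C. Tiles were imaged over ~14 h after glucosamine-6-phosphate (40 μM to 10 mM) in HEPES/KCl/Mg(OAc)2 buffer was flowed in. Normalised per-tile medians were fit to one- or two-exponential decays for kobs, and kcat and KM came from weighted Michaelis–Menten fits.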

Variant | self-cleavage kobs at 2500 uM GlcN6P [s⁻¹]
A14C G40U U47C A53G C61A C70U | < 1e-05
A14U A36U C71U | < 1e-05
A14U U47G C68U | 0.000197 ± 3.4e-05
G29U G38C U56G | < 1e-05
C19A A42C | < 1e-05
G29A C50A C67G | 8.63e-05 ± 3.6e-05
U31C G59A G66U | < 1e-05
A14C G32U U47C C67G | < 1e-05
C16G A36G U69G | 4.76e-05 ± 2.4e-05
G29A C50G U55A | 0.000211 ± 8.8e-05
C16A G40C A42U | < 1e-05
A15G G32C G37U C70A | 0.000633 ± 0.00028
C16G U31G A42G | 0.000761 ± 0.0003
A15G U55A A64U | 9.74e-05 ± 1.8e-05
U30C G35A C67G | < 1e-05
A15C U30A A33C G41U C50U C68A C70G | < 1e-05
U30A A39G U69G | 5.54e-05 ± 2.2e-05
U31C G38U A53U | < 1e-05
U30G G40C U46G | 4.32e-05 ± 1.4e-05
G29A G60U C71A | < 1e-05

Variant | self-cleavage kobs at 2500 uM GlcN6P [s⁻¹]
A15C U31C U45A G59U U65A | < 1e-05
U31G A33U C68G | < 1e-05
U30C G44A G66U | < 1e-05
A14G C67G C68A | 2.78e-05 ± 1.3e-05
C16G G51A G60A G63A C70A | 4.28e-05 ± 1.9e-05
A14U G32A G38U C50G C71G | 0.000179 ± 3.5e-05
A15U U45A U57C | 4.29e-05 ± 1.9e-05
G29U U45A U54C U55C G62C | < 1e-05
A15U G37A G66C | 7.17e-05 ± 1.8e-05
U31C G35A G66U C71A | < 1e-05
U30G U45A C58G | 9.63e-05 ± 1.6e-05
G29C G32C | 2.89e-05 ± 9.4e-06
C16G C34U A36C | < 1e-05
A15U A33U G59U | < 1e-05
U30A G43U C61A C71U | < 1e-05
U31C G38U G66U | < 1e-05
A15G G35C G37C U49C | < 1e-05
U30G A33G A42G G43U C70A | < 1e-05
A15C A42G C70G | 7.41e-05 ± 1.9e-05
C16U G38A G66A | < 1e-05

Variants of: B1
Experiment: self-cleavage kobs at 10000 uM GlcN6P; higher = faster cleavage; RNA array
Conditions: with glucosamine-6-phosphate
Summary of the method: as §1

Variant | self-cleavage kobs at 10000 uM GlcN6P [s⁻¹]
A15C U31C U45A G59U U65A | < 1e-05
U30G U45A C58G | 0.000163 ± 4.1e-05
G29C G32C | 9.51e-05 ± 1.2e-05
A15C A42G C70G | 4.12e-05 ± 1.7e-05

From the supplement of paper PMC7125110
